Where two headings read alike, the source gives them in different places.
Experiments:
Assay in all cases: two-hybrid library CCNG1;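 further: natural log of median RNA to DNA barcode read ratio; higher means stronger binding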
O10-bH = target: T1, O10-bH
T1 chain: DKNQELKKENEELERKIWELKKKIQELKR

O5-bH = target: T2, O5-bH
T2 chain: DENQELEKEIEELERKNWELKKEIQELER

O11-bH = target: T3, O11-bH
T3 chain: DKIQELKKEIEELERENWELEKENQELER

O3-bH = target: T4, O3-bH
T4 chain: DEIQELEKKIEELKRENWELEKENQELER

O16-bH = target: T5, O16-bH
T5 chain: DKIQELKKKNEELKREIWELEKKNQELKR

O6-bH = target: T6, O6-bH
T6 chain: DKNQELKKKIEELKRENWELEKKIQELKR

O13-bH = target: T7, O13-bH
T7 chain: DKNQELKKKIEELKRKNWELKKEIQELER

O2-bH = target: T8, O2-bH
T8 chain: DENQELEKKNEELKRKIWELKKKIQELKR

O4-bH = target: T9, O4-bH
T9 chain: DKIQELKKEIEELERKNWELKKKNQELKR

O7-bH = target: T10, O7-bH
T10 chain: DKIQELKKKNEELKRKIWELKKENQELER

O9-bH = target: T11, O9-bH; details: mean of both orientations
T11 chain: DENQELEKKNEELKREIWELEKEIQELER

O14-bH = target: T12, O14-bH
T12 chain: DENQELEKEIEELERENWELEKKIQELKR

O15-bH = target: T13, O15-bH
T13 chain: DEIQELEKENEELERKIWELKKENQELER

O8-bH = target: T14, O8-bH
T14 chain: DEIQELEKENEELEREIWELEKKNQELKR

O12-bH = target: T15, O12-bH
T15 chain: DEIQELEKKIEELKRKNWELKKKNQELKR

4H717-bH = target: T16, 4H717-bH
T16 chain: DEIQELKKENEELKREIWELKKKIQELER

4H908-bH = target: T17, 4H908-bH
T17 chain: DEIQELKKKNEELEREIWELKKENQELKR

4H72-bH = target: T18, 4H72-bH
T18 chain: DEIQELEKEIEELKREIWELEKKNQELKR

4H754-bH = target: T19, 4H754-bH
T19 chain: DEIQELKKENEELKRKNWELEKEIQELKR

4H953-bH = target: T20, 4H953-bH
T20 chain: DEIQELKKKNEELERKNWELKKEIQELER

4H967-bH = target: T21, 4H967-bH
T21 chain: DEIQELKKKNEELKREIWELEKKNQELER

4H883-bH = target: T22, 4H883-bH
T22 chain: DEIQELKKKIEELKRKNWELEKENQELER

4H687-bH = target: T23, 4H687-bH
T23 chain: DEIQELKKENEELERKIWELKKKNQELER

4H918-bH = target: T24, 4H918-bH
T24 chain: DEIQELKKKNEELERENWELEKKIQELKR

4H797-bH = target: T25, 4H797-bH
T25 chain: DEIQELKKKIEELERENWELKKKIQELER

B1: O10-bH (peptide)
chain: DKNQELKKENEELERKIWELKKKIQELKR
interaction score (O10-bH; mean of both orientations): 0.392 | interaction score (O5-bH): 0.349 | interaction score (O11-bH): -0.919 | interaction score (O3-bH): 1.13 | interaction score (O16-bH): 0.522 | interaction score (O6-bH): 0.0839 | interaction score (O13-bH): 0.177 | interaction score (O2-bH): 0.103 | interaction score (O4-bH): 0.524 | interaction score (O7-bH): 0.671 | interaction score (O9-bH): 0.317 | interaction score (O14-bH): -1.44 | interaction score (O15-bH): -0.726 | interaction score (O8-bH): -0.465 | interaction score (O12-bH): -1.91

B2: 4H687-bH (peptide)
chain: DEIQELKKENEELERKIWELKKKNQELER
interaction score (4H717-bH): -0.0944 | interaction score (O10-bH): -0.602 | interaction score (4H908-bH): -0.414 | interaction score (4H72-bH): 0.182 | interaction score (4H754-bH): -0.221 | interaction score (4H953-bH): -0.5 | interaction score (4H967-bH): 1.63 | interaction score (4H883-bH): 0.0397 | interaction score (4H687-bH): 0 | interaction score (4H918-bH): -0.146 | interaction score (4H797-bH): -0.897
